PMC7367873, “Dissecting the sequence determinants for dephosphorylation by the catalytic subunits of phosphatases PP1 and PP2A” (Nature Communications, 2020)

B1: UBAP2L (protein, UniProt Q14157 1-1087, looked up)
Ubiquitin-associated protein …: MMTSVGTNRARGNWEQPQNQNQTQHKQRPQATAEQIRLAQMISDHNDADFEEKVKQLIDITGKNQDECVIALHDCNGDVNRAINVLLEGNPDTHSWEMVGKKKGVSGQKDGGQTESNEEGKENRDRDRDYSRRRGGPPRRGRGASRGREFRGQENGLDGTKSGGPSGRGTERGRRGRGRGRGGSGRRGGRFSAQGMGTFNPADYAEPANTDDNYGNSSGNTWNNTGHFEPDDGTSAWRTATEEWGTEDWNEDLSETKIFTASNVSSVPLPAENVTITAGQRIDLAVLLGKTPSTMENDSSNLDPSQAPSLAQPLVFSNSKQTAISQPASGNTFSHHSMVSMLGKGFGDVGEAKGGSTTGSQFLEQFKTAQALAQLAAQHSQSGSTTTSSWDMGSTTQSPSLVQYDLKNPSDSAVHSPFTKRQAFTPSSTMMEVFLQEKSPAVATSTAAPPPPSSPLPSKSTSAPQMSPGSSDNQSSSPQPAQQKLKQQKKKASLTSKIPALAVEMPGSADISGLNLQFGALQFGSEPVLSDYESTPTTSASSSQAPSSLYTSTASESSSTISSNQSQESGYQSGPIQSTTYTSQNNAQGPLYEQRSTQTRRYPSSISSSPQKDLTQAKNGFSSVQATQLQTTQSVEGATGSAVKSDSPSTSSIPPLNETVSAASLLTTTNQHSSSLGGLSHSEEIPNTTTTQHSSTLSTQQNTLSSSTSSGRTSTSTLLHTSVESEANLHSSSSTFSTTSSTVSAPPPVVSVSSSLNSGSSLGLSLGSNSTVTASTRSSVATTSGKAPPNLPPGVPPLLPNPYIMAPGLLHAYPPQVYGYDDLQMLQTRFPLDYYSIPFPTPTTPLTGRDGSLASNPYSGDLTKFGRGDASSPAPATTLAQPQQNQTQTHHTTQQTFLNPALPPGYSYTSLPYYTGVPGLPSTFQYGPAVFPVAPTSSKQHGVNVSVNASATPFQQPSGYGSHGYNTGVSVTSSNTGVPDISGSVYSKTQQSFEKQGFHSGTPAASFNLPSALGSGGPINPATAAAYPPAPFMHILTPHQQPHSQILHHHLQQDGQTGSGQRSQTSSIPQKPQTNKSAYNSYSWGAN
B2: CAV1 (protein, UniProt Q03135 2-178, looked up)
Caveolin-1: SGGKYVDSEGHLYTVPIREQGNIYKPNNKAMADELSEKQVYDAHTKEIDLVNRDPKHLNDDVVKIDFEDVIAEPEGTHSFDGIWKASFTTFTVTKYWFYRLLSALFGIPMALIWGIYFAILSFLHIWAVVPCIKSFLIEIQCISRVYSIYVHTVCDPLFEAVGKIFSNVRINLQKEI
B3: PNPLA6 (protein, UniProt Q8IY17 1-1375, looked up)
Patatin-like phospholipase …: MEAPLQTGMMGTSSHGLATNSSGAKVAERDGFQDVLAPGEGSAGRICGAQPVPFVPQVLGVMIGAGVAVVVTAVLILLVVRRLRVPKTPAPDGPRYRFRKRDKVLFYGRKIMRKVSQSTSSLVDTSVSATSRPRMRKKLKMLNIAKKILRIQKETPTLQRKEPPPAVLEADLTEGDLANSHLPSEVLYMLKNVRVLGHFEKPLFLELCRHMVFQRLGQGDYVFRPGQPDASIYVVQDGLLELCLPGPDGKECVVKEVVPGDSVNSLLSILDVITGHQHPQRTVSARAARDSTVLRLPVEAFSAVFTKYPESLVRVVQIIMVRLQRVTFLALHNYLGLTNELFSHEIQPLRLFPSPGLPTRTSPVRGSKRMVSTSATDEPRETPGRPPDPTGAPLPGPTGDPVKPTSLETPSAPLLSRCVSMPGDISGLQGGPRSDFDMAYERGRISVSLQEEASGGSLAAPARTPTQEPREQPAGACEYSYCEDESATGGCPFGPYQGRQTSSIFEAAKQELAKLMRIEDPSLLNSRVLLHHAKAGTIIARQGDQDVSLHFVLWGCLHVYQRMIDKAEDVCLFVAQPGELVGQLAVLTGEPLIFTLRAQRDCTFLRISKSDFYEIMRAQPSVVLSAAHTVAARMSPFVRQMDFAIDWTAVEAGRALYRQGDRSDCTYIVLNGRLRSVIQRGSGKKELVGEYGRGDLIGVVEALTRQPRATTVHAVRDTELAKLPEGTLGHIKRRYPQVVTRLIHLLSQKILGNLQQLQGPFPAGSGLGVPPHSELTNPASNLATVAILPVCAEVPMVAFTLELQHALQAIGPTLLLNSDIIRARLGASALDSIQEFRLSGWLAQQEDAHRIVLYQTDASLTPWTVRCLRQADCILIVGLGDQEPTLGQLEQMLENTAVRALKQLVLLHREEGAGPTRTVEWLNMRSWCSGHLHLRCPRRLFSRRSPAKLHELYEKVFSRRADRHSDFSRLARVLTGNTIALVLGGGGARGCSHIGVLKALEEAGVPVDLVGGTSIGSFIGALYAEERSASRTKQRAREWAKSMTSVLEPVLDLTYPVTSMFTGSAFNRSIHRVFQDKQIEDLWLPYFNVTTDITASAMRVHKDGSLWRYVRASMTLSGYLPPLCDPKDGHLLMDGGYINNLPADIARSMGAKTVIAIDVGSQDETDLSTYGDSLSGWWLLWKRLNPWADKVKVPDMAEIQSRLAYVSCVRQLEVVKSSSYCEYLRPPIDCFKTMDFGKFDQIYDVGYQYGKAVFGGWSRGNVIEKMLTDRRSTDLNESRRADVLAFPSSGFTDLAEIVSRIEPPTSYVSDGCADGEESDCLTEYEEDAGPDCSRDEGGSPEGASPSTASEMEEEKSILRQRRCLPQEPPGSATDA
B4: RRBP1 (protein, UniProt Q9P2E9 1-1410, looked up)
Ribosome-binding protein 1: MDIYDTQTLGVVVFGGFMVVSAIGIFLVSTFSMKETSYEEALANQRKEMAKTHHQKVEKKKKEKTVEKKGKTKKKEEKPNGKIPDHDPAPNVTVLLREPVRAPAVAVAPTPVQPPIIVAPVATVPAMPQEKLASSPKDKKKKEKKVAKVEPAVSSVVNSIQVLTSKAAILETAPKEVPMVVVPPVGAKGNTPATGTTQGKKAEGTQNQSKKAEGAPNQGRKAEGTPNQGKKTEGTPNQGKKAEGTPNQGKKAEGTPNQGKKAEGAQNQGKKVDTTPNQGKKVEGAPTQGRKAEGAQNQAKKVEGAQNQGKKAEGAQNQGKKGEGAQNQGKKAEGAQNQGKKAEGAQNQGKKAEGAQNQGKKAEGAQNQGKKAEGAQNQGKKAEGAQNQGKKVEGAQNQGKKAEGAQNQGKKAEGAQNQGKKAEGAQNQGKKAEGAQNQGKKAEGAQNQGKKAEGAQNQGKKAEGAQNQGKKVEGAQNQGKKAEGAQNQGKKAEGAQNQGKKAEGAQNQGQKGEGAQNQGKKTEGAQGKKAERSPNQGKKGEGAPIQGKKADSVANQGTKVEGITNQGKKAEGSPSEGKKAEGSPNQGKKADAAANQGKKTESASVQGRNTDVAQSPEAPKQEAPAKKKSGSKKKGEPGPPDADGPLYLPYKTLVSTVGSMVFNEGEAQRLIEILSEKAGIIQDTWHKATQKGDPVAILKRQLEEKEKLLATEQEDAAVAKSKLRELNKEMAAEKAKAAAGEAKVKKQLVAREQEITAVQARMQASYREHVKEVQQLQGKIRTLQEQLENGPNTQLARLQQENSILRDALNQATSQVESKQNAELAKLRQELSKVSKELVEKSEAVRQDEQQRKALEAKAAAFEKQVLQLQASHRESEEALQKRLDEVSRELCHTQSSHASLRADAEKAQEQQQQMAELHSKLQSSEAEVRSKCEELSGLHGQLQEARAENSQLTERIRSIEALLEAGQARDAQDVQASQAEADQQQTRLKELESQVSGLEKEAIELREAVEQQKVKNNDLREKNWKAMEALATAEQACKEKLLSLTQAKEESEKQLCLIEAQTMEALLALLPELSVLAQQNYTEWLQDLKEKGPTLLKHPPAPAEPSSDLASKLREAEETQSTLQAECDQYRSILAETEGMLRDLQKSVEEEEQVWRAKVGAAEEELQKSRVTVKHLEEIVEKLKGELESSDQVREHTSHLEAELEKHMAAASAECQNYAKEVAGLRQLLLESQSQLDAAKSEAQKQSDELALVRQQLSEMKSHVEDGDIAGAPASSPEAPPAEQDPVQLKTQLEWTEAILEDEQTQRQKLTAEFEEAQTSACRLQEELEKLRTAGPLESSETEEASQLKERLEKEKKLTSDLGRAATRLQELLKTTQEQLAREKDTVKKLQEQLEKAEDGSSSKEGTSV
B5: LRRC47 (protein, UniProt Q8N1G4 2-583, looked up)
Leucine-rich …: AAAAVSESWPELELAERERRRELLLTGPGLEERVRAAGGQLPPRLFTLPLLHYLEVSGCGSLRAPGPGLAQGLPQLHSLVLRRNALGPGLSPELGPLPALRVLDLSGNALEALPPGQGLGPAEPPGLPQLQSLNLSGNRLRELPADLARCAPRLQSLNLTGNCLDSFPAELFRPGALPLLSELAAADNCLRELSPDIAHLASLKTLDLSNNQLSEIPAELADCPKLKEINFRGNKLRDKRLEKMVSGCQTRSILEYLRVGGRGGGKGKGRAEGSEKEESRRKRRERKQRREGGDGEEQDVGDAGRLLLRVLHVSENPVPLTVRVSPEVRDVRPYIVGAVVRGMDLQPGNALKRFLTSQTKLHEDLCEKRTAATLATHELRAVKGPLLYCARPPQDLKIVPLGRKEAKAKELVRQLQLEAEEQRKQKKRQSVSGLHRYLHLLDGNENYPCLVDADGDVISFPPITNSEKTKVKKTTSDLFLEVTSATSLQICKDVMDALILKMAEMKKYTLENKEEGSLSDTEADAVSGQLPDPTTNPSAGKDGPSLLVVEQVRVVDLEGSLKVVYPSKADLATAPPHVTVVR
B6: MOV10 (protein, UniProt Q9HCE1 1-1003, looked up)
Helicase MOV-10: MPSKFSCRQLREAGQCFESFLVVRGLDMETDRERLRTIYNRDFKISFGTPAPGFSSMLYGMKIANLAYVTKTRVRFFRLDRWADVRFPEKRRMKLGSDISKHHKSLLAKIFYDRAEYLHGKHGVDVEVQGPHEARDGQLLIRLDLNRKEVLTLRLRNGGTQSVTLTHLFPLCRTPQFAFYNEDQELPCPLGPGECYELHVHCKTSFVGYFPATVLWELLGPGESGSEGAGTFYIARFLAAVAHSPLAAQLKPMTPFKRTRITGNPVVTNRIEEGERPDRAKGYDLELSMALGTYYPPPRLRQLLPMLLQGTSIFTAPKEIAEIKAQLETALKWRNYEVKLRLLLHLEELQMEHDIRHYDLESVPMTWDPVDQNPRLLTLEVPGVTESRPSVLRGDHLFALLSSETHQEDPITYKGFVHKVELDRVKLSFSMSLLSRFVDGLTFKVNFTFNRQPLRVQHRALELTGRWLLWPMLFPVAPRDVPLLPSDVKLKLYDRSLESNPEQLQAMRHIVTGTTRPAPYIIFGPPGTGKTVTLVEAIKQVVKHLPKAHILACAPSNSGADLLCQRLRVHLPSSIYRLLAPSRDIRMVPEDIKPCCNWDAKKGEYVFPAKKKLQEYRVLITTLITAGRLVSAQFPIDHFTHIFIDEAGHCMEPESLVAIAGLMEVKETGDPGGQLVLAGDPRQLGPVLRSPLTQKHGLGYSLLERLLTYNSLYKKGPDGYDPQFITKLLRNYRSHPTILDIPNQLYYEGELQACADVVDRERFCRWAGLPRQGFPIIFHGVMGKDEREGNSPSFFNPEEAATVTSYLKLLLAPSSKKGKARLSPRSVGVISPYRKQVEKIRYCITKLDRELRGLDDIKDLKVGSVEEFQGQERSVILISTVRSSQSFVQLDLDFNLGFLKNPKRFNVAVTRAKALLIIVGNPLLLGHDPDWKVFLEFCKENGGYTGCPFPAKLDLQQGQNLLQGLSKLSPSTSGPHSHDYLPQEREGEGGLSLQVEPEWRNEL
B7: SSR4 (protein, UniProt P51571 24-173, looked up)
Translocon-associated protein …: EACLEPQITPSYYTTSDAVISTETVFIVEISLTCKNRVQNMALYADVGGKQFPVTRGQDVGRYQVSWSLDHKSAHAGTYEVRFFDEESYSLLRKAQRNNEDISIIPPLFTVSVDHRGTWNGPWVSTEVLAAAIGLVIYYLAFSAKSHIQA

The molecules below were run on GFP-14-3-3β and its binding proteins (assay: GFP-14-3-3β co-IP with LC-MS/MS label-free quantification, untreated versus PP1c-treated). Details: PP1 vs untreated; LFQ intensities; 3 replicates each.
Parameters: species or system human
For B1, the “Difference (log2), PP1 vs untreated” value was 0.7375 log2. B2 was tested, and the “Difference (log2), PP1 vs untreated” value was 0.6719 log2. With B3 the “Difference (log2), PP1 vs untreated” value was 0.7127 log2. B4 was tested, and the “Difference (log2), PP1 vs untreated” value was 0.6577 log2. In the case of B5, the “Difference (log2), PP1 vs untreated” value is reported as 0.6799 log2. With B6 the “Difference (log2), PP1 vs untreated” value was 0.6679 log2.

Same assay, conditions: log2 difference; pairwise comparison PP1 vs untreated, label-free quantification, 3 replicates each
B7 was tested, and the “Difference (log2), PP1 vs untreated” value was 2.257.

The molecules below were run on GFP-14-3-3β (assay: GFP-14-3-3β co-IP with LC-MS/MS, untreated GFP-14-3-3β versus GFP control (14-3-3 interactome)). Details: log2 difference; pairwise comparison untreated vs GFP, label-free quantification, 3 replicates each.
Type: binding, human
B7 was tested, and the “Difference (log2), untreated vs GFP” value was 0.4182.

Same assay, conditions: untreated vs GFP; LFQ intensities; 3 replicates each
With B1 the “Difference (log2), untreated vs GFP” value was -0.6949 log2. In the case of B2, the “Difference (log2), untreated vs GFP” value is reported as 0.3485 log2. For B3, the “Difference (log2), untreated vs GFP” value was 1.692 log2. For B4, the “Difference (log2), untreated vs GFP” value was -0.1928 log2. B5 was tested, and the “Difference (log2), untreated vs GFP” value was 1.1154 log2. With B6 the “Difference (log2), untreated vs GFP” value was 0.6155 log2.
